Among the data in article PMC5399476 are stoichiometry N values, retold here.

This test concerns the target wild-type core streptavidin. In words: SDS-PAGE with fluorescence scanning.

“wild-type core streptavidin (natural protein)” yielded a stoichiometry N of 4.

One may read the stoichiometry N as the number of molecules, sites or subunits per partner or assembly.
